Patent US20200024330A1

How the values were obtained:
Assay in all cases: cell-based or functional assay
[1] = target: HIV-1 Env of isolate MGRM-G-015 (HIV-1)
[2] = target: HIV-1 Env of isolate MGRM-G-016 (HIV-1)
[3] = target: HIV-1 Env of isolate MGRM-Chronic-B-023 (HIV-1)
[4] = target: HIV-1 Env of isolate MGRM-F1-013 (subtype F), on pseudovirus (HIV-1)
[5] = target: HIV-1 Env of isolate MGRM-G-009 (HIV-1)
[6] = target: HIV-1 Env of isolate MGRM-G-013 (HIV-1)
[7] = target: HIV-1 Env of isolate JRFL (HIV-1)
[8] = target: HIV-1 Env of isolate MGRM-G-017 (HIV-1)
[9] = target: HIV-1 Env of isolate MGRM-Chronic-B-024 (HIV-1)
[10] = target: HIV-1 Env of isolate MGRM-Chronic-B-017 (HIV-1)
[11] = target: HIV-1 Env of isolate MGRM-Chronic-B-011 (HIV-1)
[12] = target: HIV-1 Env of isolate MGRM-Chronic-B-020 (HIV-1)
[13] = target: HIV-1 Env of isolate MGRM-G-006 (HIV-1)
[14] = target: HIV-1 Env of isolate MGRM-Chronic-B-018 (HIV-1)
[15] = target: HIV-1 Env of isolate MGRM-G-001 (HIV-1)
[16] = target: HIV-1 Env of isolate MGRM-G-019 (HIV-1)
[17] = target: HIV-1 Env of isolate MGRM-Chronic-B-012 (HIV-1)
[18] = target: HIV-1 Env of isolate MGRM-G-004 (HIV-1)
[19] = target: HIV-1 Env of isolate MGRM-G-014 (HIV-1)
[20] = target: aMLV envelope (negative control pseudovirus)
[21] = target: HIV-1 Env of isolate MGRM-G-011 (HIV-1)
[22] = target: HIV-1 Env of isolate MGRM-G-027 (HIV-1)
[23] = target: HIV-1 Env of isolate MGRM-Chronic-B-010 (HIV-1)
[24] = target: HIV-1 92BR020 envelope glycoprotein (Env) on pseudovirus (HIV-1)
[25] = target: HIV-1 92RW020 envelope glycoprotein (Env) on pseudovirus (HIV-1)
[26] = target: HIV-1 92UG024 envelope glycoprotein (Env) on pseudovirus (HIV-1)
[27] = target: HIV-1 92TH021 envelope glycoprotein (Env) on pseudovirus (HIV-1)
[28] = target: HIV-1 NL43 envelope glycoprotein (Env) on pseudovirus (HIV-1)

5345_I01 (PGT-137) (antibody), sequence (VH): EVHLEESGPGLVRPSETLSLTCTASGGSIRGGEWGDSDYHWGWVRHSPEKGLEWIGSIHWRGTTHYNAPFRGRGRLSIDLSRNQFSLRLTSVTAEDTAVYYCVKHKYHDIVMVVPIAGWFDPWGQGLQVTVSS
5345_I01 (PGT-137) (antibody), sequence (VL): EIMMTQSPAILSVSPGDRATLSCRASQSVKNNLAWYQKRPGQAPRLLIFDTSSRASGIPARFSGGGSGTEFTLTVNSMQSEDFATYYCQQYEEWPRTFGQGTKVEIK

Substance | IC50, pseudovirus neutralization [1] [µg/mL] | IC50, pseudovirus neutralization [2] [µg/mL] | IC50 [3] [µg/mL] | IC50, pseudovirus neutralization [4] [µg/mL] | IC50, pseudovirus neutralization [5] [µg/mL] | IC50, pseudovirus neutralization [6] [µg/mL] | IC50 [7] [µg/mL] | IC50, pseudovirus neutralization [8] [µg/mL] | IC50 [9] [µg/mL] | IC50 [10] [µg/mL] | IC50 [11] [µg/mL] | IC50 [12] [µg/mL] | IC50, pseudovirus neutralization [13] [µg/mL] | IC50 [14] [µg/mL] | IC50, pseudovirus neutralization [15] [µg/mL] | IC50, pseudovirus neutralization [16] [µg/mL] | IC50 [17] [µg/mL] | IC50, pseudovirus neutralization [18] [µg/mL] | IC50, pseudovirus neutralization [19] [µg/mL] | IC50, pseudovirus neutralization [20] [µg/mL] | also measured
5345_I01 (PGT-137) (antibody) | > 50 | > 50 | > 50 | > 50 | > 50 | > 50 | > 50 | 34.9 | > 50 | > 50 | > 50 | 32.9 | > 50 | > 50 | 41.7 | 0.126 | > 50 | > 50 | > 50 | > 50 | IC50, pseudovirus neutralization [21]: > 50 µg/mL; IC50, pseudovirus neutralization [22]: 0.228 µg/mL; IC50 [23]: > 50 µg/mL
5147_N06 (PGT-130) (antibody) | > 50 | > 50 | > 50 | > 50 | > 50 | > 50 | 0.046 | > 50 | 5.78 | > 50 | 0.153 | 0.014 | > 50 | 31.9 | 0.0198 | 27.9 | 0.373 | > 50 | 2.23 | > 50 | IC50 (ug/ml), neutralizing activity [24]: 1.12 µg/mL; IC50 (ug/ml), neutralizing activity [25]: 0.014 µg/mL; IC50 (ug/ml), neutralizing activity [26]: > 10 µg/mL; IC50, pseudovirus neutralization [21]: > 50 µg/mL; IC50, pseudovirus neutralization [22]: 4.14 µg/mL; IC50 (ug/ml), neutralizing activity [27]: 0.0082 µg/mL; IC50 (ug/ml), neutralizing activity [28]: > 10 µg/mL; IC50 [23]: 0.006 µg/mL
